Results published in paper PMC8945002, “Pseudomonas aeruginosa Bacterioferritin Is Assembled from FtnA and BfrB Subunits with the Relative Proportions Dependent on the Environmental Oxygen Availability” (Biomolecules, 2022).

B1: FtnA subunit of P. aeruginosa (endogenous) (natural protein, P. aeruginosa PAO1 (endogenous), UniProt Q9HWF9 1-154, looked up)
chain: MQGHPEVIDYLNTLLTGELAARDQYFIHSRMYEDWGFSKLYERLNHEMEEETQHADALLRRILLLEGTPRMRPDDIHPGTTVPEMLEADLKLERHVRAALAKGIALCEQHKDFVSRDILKAQLADTEEDHAYWLEQQLGLIARMGLENYLQSQI
notes: FtnA, bacterial ferritin subunit of P. aeruginosa PAO1, gene PA4235 (formerly annotated bfrA); subunit mass 17,940 Da by LC-MS; Found in PAO1 only as a subunit of heterooligomeric Bfr; as 24-mer FtnA only in lysates of ΔbfrB cells cultured in 2% O2 or anaerobically; also called bacterial ferritin; formerly BfrA; source: purified from P. aeruginosa PAO1 as part of Bfr (Q Sepharose, hydroxyapatite, …)
B2: bacterioferritin-associated ferredoxin (Bfd) (natural protein, P. aeruginosa, UniProt Q9HY80 1-73, looked up)
chain: MYVCLCQGVTDNQIRDAIYEGCCSYREVREATGVGTQCGKCACLAKQVVRETLNDLQSAQPVPAFGTTAFVAA
notes: Bfd, the bacterioferritin-associated [2Fe-2S] ferredoxin of P. aeruginosa, product of the bfd gene next to bfrB; Holds a [2Fe-2S] cluster
B3: Bfr containing only BfrB subunits (24-mer BfrB) isolated from P. aeruginosa (natural protein)
chain: not shown
notes: BfrB, bacterioferritin subunit of P. aeruginosa PAO1, gene PA3531; subunit mass 18,552 Da by LC-MS; 24 copies hold for the homooligomer (SPR target, self rows); in the rows with m3 it stands for the BfrB subunits of the heterooligomeric 24-mer Bfr; also called homooligomeric BfrB; Bfr (0% FtnA, 21% O2); source: purified from P. aeruginosa PAO1 or ΔftnA cells (Q Sepharose, hydroxyapatite, Superdex …)

Assays:
[1] = target: the molecule itself; test: native gel or EMSA; lysates of PAO1, ΔftnA and ΔbfrB cells (21%, 10%, 2% O2 or anaerobic) on native PAGE, stained for iron with Ferene S; BfrBrec and FtnArec as mobility standards; bands excised, digested with trypsin and identified by LC-MS
[2] = target: B3; test: SPR; Biacore X100, 25 °C; Bfr or FtnArec immobilised on CM5 chips by amine coupling (100 nM in 10 mM sodium acetate pH 5.0); Bfd 0-40 μM flowed at 5 µL/min in PBS pH 7.4 with 1 mM TCEP; steady-state analysis, steric factor n set to 0.91; conditions: both partners purified
[3] = target: T1, heterooligomeric 24-mer Bfr containing ~45% FtnA, isolated from PAO1 cells cultured in 2% O2 (P. aeruginosa PAO1 (endogenous), UniProt Q9HY79 1-158; Q9HWF9 1-154); test: as above; conditions: both partners purified
T1 construct: BfrB subunit of P. aeruginosa PAO1, gene PA3531; 18,552 Da; ~55% of the 24 subunits; FtnA subunit of P. aeruginosa PAO1, gene PA4235; 17,940 Da; ~45% of the 24 subunits; 24 subunits in all; a population of molecules of varying composition, on average ~45% FtnA; heme in the BfrB dimers; also called heterooligomeric Bfr; Bfr 45 (2% O2); source: purified from P. aeruginosa PAO1 cultured in 2% O2 (Q …)
T1 sequence (Q9HY79 whole entry, chain 1 of 2, one chain of several): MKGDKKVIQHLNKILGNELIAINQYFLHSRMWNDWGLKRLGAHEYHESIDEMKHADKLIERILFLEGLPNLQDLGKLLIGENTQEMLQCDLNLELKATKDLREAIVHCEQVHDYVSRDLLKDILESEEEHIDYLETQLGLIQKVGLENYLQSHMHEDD

[4] = target: the molecule itself; test: SEC; Superdex 200 Increase 10/300 GL, 100 mM phosphate buffer pH 7.6, 1 mM TCEP; pure Bfr from P. aeruginosa; elution volume compared with a ferritin standard

For B1, the “stoichiometry N” value [1] was 24.

Work on B2 yielded a Kd [2] of 4.7 ± 0.8 µM and a Kd [3] of 4.3 ± 0.5 µM.

In the case of B3, the “stoichiometry N” value [4] is reported as 24.
